Test results from patent publication US20140335107A1 (published 2014).
Where no end group is shown, it is not given here.

Tests used:
[1] = target: T1, extracellular domain of human CD79b (huCD79becd) (human, UniProt P40259 29-159); assay: phage selection, Fab on phage
T1 construct: expressed in CHO cells
T1 sequence: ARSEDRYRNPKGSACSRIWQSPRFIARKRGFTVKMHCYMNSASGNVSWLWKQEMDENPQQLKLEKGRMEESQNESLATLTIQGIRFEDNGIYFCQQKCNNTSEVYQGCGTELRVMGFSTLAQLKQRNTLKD
Protocol: For phage selection, the extracellular domain of CD79b (huCD79becd) (2 μg/ml) was immobilized in PBS on MaxiSorp microtiter plates (Nunc) overnight at 4° C. Plates were blocked for at least 1 h using Casein Blocker (Pierce). Phage were harvested from the culture supernatant and suspended in PBS containing 0.5% BSA and 0.05% Tween 20 (PBSBT). Following addition of the phage library and phage selection for 2 h, microtiter wells were washed extensively with PBS containing 0.05% Tween 20 (PBST) to remove unbound phage and bound phage were eluted by incubating the wells with 100 mM HCl for 30 min. Selection stringency may be increased during successive rounds of selection by increasing the number of washes with PBST or by incubating with soluble huCD79becd for increasing time periods prior to elution.

[2] = target: T2, human CD79b (human, UniProt P40259 29-229); assay: FACS on DoHH-2 cells, Fab (data not shown)
T2 construct: endogenous CD79b on B-cell lines (BJAB, BJAB-luciferase, DoHH-2); also called PRO36249; CD79b expressed on the surface of BJAB-luciferase cells
T2 sequence: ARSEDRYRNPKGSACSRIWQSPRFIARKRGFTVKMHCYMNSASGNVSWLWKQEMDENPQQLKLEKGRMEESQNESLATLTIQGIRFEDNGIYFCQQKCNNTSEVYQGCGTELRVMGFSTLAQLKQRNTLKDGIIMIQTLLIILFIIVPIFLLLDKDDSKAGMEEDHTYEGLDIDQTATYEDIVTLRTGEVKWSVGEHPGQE
Protocol: To further determine binding of the Fab variants of MA79b-grafted “humanized” antibody or antibody variants, binding of Fab and/or IgG variants to DoHH-2 cells were analyzed using FACS analysis. Further, binding of MA79b-grafted “humanized” antibody variants to BJAB-luciferase cells was analyzed using FACS analysis.
For FACS analysis of Fab variants of MA79b-grafted “humanized” antibody variants (MA79b-grafted “humanized” antibody (IgG version used as a control)), DoHH-2 cells (1×10⁶ in 100 μl volume) were first incubated with or without 1 μg of original mouse anti-CD79b monoclonal antibody (MA79b) for 30 minutes, before adding 1 μg of individual Fab variant (or control antibody).

[3] = target: T3, extracellular domain of human CD79b fused to Fc (huCD79becd-Fc) (human, UniProt P40259 29-159); assay: Biacore (SPR), Fab
T3 construct: expressed in CHO cells; also called huCD79b-Fc; not shown: Fc part of the fusion is not described
T3 sequence: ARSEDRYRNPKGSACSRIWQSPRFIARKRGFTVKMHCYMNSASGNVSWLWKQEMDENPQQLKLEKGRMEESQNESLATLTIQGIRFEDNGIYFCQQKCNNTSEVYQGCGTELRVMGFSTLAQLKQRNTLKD
Protocol: (§1) Binding of Fab and IgG variants of MA79b, the MA79b-grafted “humanized” antibody or MA79b-grafted “humanized” antibody variants to immobilized huCD79becd or huCD79b-Fc or the 16 amino acid peptide containing the epitope for MA79b was measured by surface plasma resonance. Affinity determinations were performed by surface plasmon resonance using a BIAcore™-2000. The antigen, huCD79becd or huCD79b-Fc was immobilized (approximately 50-200 RU) in 10 mM sodium acetate pH 4.8 on a CM5 sensor chip. Due to a large avidity effect, affinity measurements were sensitive to the amount of huCD79becd immobilized. For this reason, affinities, determined for samples run on different days, were normalized to MA79b that was run along side as a standard. In experiments that measured binding to the 16 amino acid peptide containing the epitope for MA79b ([…]) (SEQ ID NO: 16), the biotinylated peptide was captured (approximately 20 RU) on a streptavidin coated sensor chip. Purified MA79b-grafted “humanized” antibody variant (as Fab or IgG) (a 2-fold serial dilution of 0.5 to 1000 nM in PBST) was injected at a flow rate of 30 μL/min. Each sample was analyzed with 4-minute association and 10-minute disassociation. After each injection the chip was regenerated using 10 mM Glycine pH 1.7. […]

[4] = target: T1, extracellular domain of human CD79b …; assay: Biacore (SPR), IgG
Protocol: as §1

[5] = target: T1, extracellular domain of human CD79b …; assay: FACS analysis, IgG (data not shown)
[6] = target: T1, extracellular domain of human CD79b …; assay: Biacore (SPR), IgG (FIG. 12)
Protocol: as §1

[7] = target: T2, human CD79b; assay: Scatchard analysis, 125I-labeled IgG competed with unlabeled IgG on BJAB cells stably expressing cynomolgus CD79b and endogenous human CD79b
Protocol: To further determine binding of the IgG variants having changes in HVR-L2 and HVR-H3 (huMA79b L2/H3), binding of iodinated IgG variants to BJAB cells expressing human CD79b and cynomologous CD79b was analyzed and Scatchard analysis was performed.
For Scatchard analysis, 0.5 nM I¹²⁵ labeled MA79b or huMA79b L2/H3 was competed against unlabeled MA79b or huMA79b L2/H3, respectively, ranging from 50 to 0.02 nM (12 step 1:2 serial dilution) in the presence of a transfected BJAB line stably expressing cynomologous-CD79b and endogenous human-CD79b. After a four hour incubation at 4° C., cells were washed and cell pellet counts were read by a gamma counter (1470 WIZARD Automatic Gamma Counter; Perkin Elmer, Walthem, Mass.). All points were done in triplicate and counted for 10 minutes. The average CPM was used for Kd calculation using the New Ligand (Genentech, South San Francisco, Calif.) program.

[8] = target: T4, 16 amino acid peptide containing the epitope for MA79b (ARSEDRYRNPKGSACK) (human, also: biotinylated (site not given here)); assay: Biacore (SPR), biotinylated peptide captured on streptavidin chip
T4 construct: synthesized; captured on a streptavidin coated sensor chip; also called biotinylated peptide
T4 peptide: ARSEDRYRNPKGSACK
Protocol: as §1

[9] = target: T3, extracellular domain of human CD79b …; assay: Biacore (SPR), Fab against IgG on immobilized huCD79becd-Fc
Protocol: as §1

B1: huMA79b graft variant with HVR-H3 of SEQ ID NO: 94 (huMA79b H3-10), Fab (Fab, name in Kabat numbering, V domains shown)
VH: EVQLVESGGGLVQPGGSLRLSCAASGYTFSSYWIEWVRQAPGKGLEWVGEILPGGGDTNYNEIFKGRFTISADTSKNTAYLQMNSLRAEDTAVYYCTRRVPIRLDYWGQGTLVTVSS
VL: DIQMTQSPSSLSASVGDRVTITCKASQSVDYDGDSFLNWYQQKPGKAPKLLIYAASNLESGVPSRFSGSGSGTDFTLTISSLQPEDFATYYCQQSNEDPLTFGQGTKVEIKR
notes: selected as Fab on phage; also made as soluble Fab for FACS; also called H3-10 mutation
binding result [1]: binds | binding result [2]: binds

B2: huMA79b graft variant with HVR-L2 of SEQ ID NO: 22 (huMA79b L2-2), Fab (Fab, name in Kabat numbering, V domains shown)
VH: EVQLVESGGGLVQPGGSLRLSCAASGYTFSSYWIEWVRQAPGKGLEWVGEILPGGGDTNYNEIFKGRFTISADTSKNTAYLQMNSLRAEDTAVYYCTRRVPVYFDYWGQGTLVTVSS
VL: DIQMTQSPSSLSASVGDRVTITCKASQSVDYDGDSFLNWYQQKPGKAPKLLIYAARKLGRGVPSRFSGSGSGTDFTLTISSLQPEDFATYYCQQSNEDPLTFGQGTKVEIKR
notes: selected as Fab on phage; also made as soluble Fab for FACS and Biacore; also called L2-2 mutation
fold improvement in monomeric binding compared to MA79b (Fab) [3]: 5 fold

B3: MA79b-grafted humanized antibody (huMA79b graft), IgG (antibody, V domains shown)
VH: EVQLVESGGGLVQPGGSLRLSCAASGYTFSSYWIEWVRQAPGKGLEWVGEILPGGGDTNYNEIFKGRFTISADTSKNTAYLQMNSLRAEDTAVYYCTRRVPVYFDYWGQGTLVTVSS
VL: DIQMTQSPSSLSASVGDRVTITCKASQSVDYDGDSFLNWYQQKPGKAPKLLIYAASNLESGVPSRFSGSGSGTDFTLTISSLQPEDFATYYCQQSNEDPLTFGQGTKVEIKR
notes: expressed as an IgG
fold loss of binding affinity [4]: > 50 fold | fold reduction of binding affinity [5]: > 100 fold

B4: MA79b-grafted humanized antibody variant 17 (huMA79b.v17) (antibody, human IgG1, kappa, V domains shown)
VH: EVQLVESGGGLVQPGGSLRLSCAASGYTFSSYWIEWVRQAPGKGLEWIGEILPGGGDTNYNEIFKGRATFSADTSKNTAYLQMNSLRAEDTAVYYCTRRVPVYFDYWGQGTLVTVSS
VL: DIQLTQSPSSLSASVGDRVTITCKASQSVDYDGDSFLNWYQQKPGKAPKLLIYAASNLESGVPSRFSGSGSGTDFTLTISSLQPEDFATYYCQQSNEDPLTFGQGTKVEIKR
notes: IgG
binding result [6]: binds

B5: MA79b-grafted humanized antibody variant L2/H3 (huMA79b L2/H3), IgG (antibody, name in Kabat numbering, V domains shown)
VH: EVQLVESGGGLVQPGGSLRLSCAASGYTFSSYWIEWVRQAPGKGLEWVGEILPGGGDTNYNEIFKGRFTISADTSKNTAYLQMNSLRAEDTAVYYCTRRVPIRLDYWGQGTLVTVSS
VL: DIQMTQSPSSLSASVGDRVTITCKASQSVDYDGDSFLNWYQQKPGKAPKLLIYAARKLGRGVPSRFSGSGSGTDFTLTISSLQPEDFATYYCQQSNEDPLTFGQGTKVEIKR
notes: L2-2 and H3-10 mutations combined on the huMA79b graft; 125I-labeled in the Scatchard assay
Kd [7]: 0.52 nM | binding result [8]: binds

B6: murine anti-CD79b monoclonal antibody MA79b (antibody, V domains shown)
VL: DIVLTQSPASLAVSLGQRATISCKASQSVDYDGDSFLNWYQQKPGQPPKLFIYAASNLESGIPARFSGSGSGTDFTLNIHPVEEEDAATYYCQQSNEDPLTFGAGTELELKR
VH: EVQLQQSGAELMKPGASVKISCKATGYTFSSYWIEWVKQRPGHGLEWIGEILPGGGDTNYNEIFKGKATFTADTSSNTAYMQLSSLTSEDSAVYYCTRRVPVYFDYWGQGTSVTVSS
notes: murine monoclonal IgG; 125I-labeled in the Scatchard assay; also called murine CD79b antibody
fold avidity component (dimeric IgG binding against monomeric Fab binding) [9]: 100 fold | Kd [7]: 0.63 nM
